According to PMC10397247:
Blank lines part the entries; values can stand above or below the binder they belong to.

Legend:
Assay in all cases: two-hybrid library CCmax;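 further: natural log of median RNA to DNA barcode read ratio; higher means stronger binding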
[1] = biological target: T1, P6-AA-1HGe-M; settings: mean of both orientations
T1 chain: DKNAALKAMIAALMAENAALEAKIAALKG

[2] = biological target: T2, P6-AA-1HGe-T; settings: mean of both orientations
T2 chain: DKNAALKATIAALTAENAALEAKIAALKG

[3] = biological target: T3, P6-AA-1HGe-R; settings: mean of both orientations
T3 chain: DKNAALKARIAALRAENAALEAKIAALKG

[4] = biological target: T4, P6-AA-1HGe-W; settings: mean of both orientations
T4 chain: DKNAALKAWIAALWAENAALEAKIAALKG

[5] = biological target: T5, P6-AA-1HGe-H; settings: mean of both orientations
T5 chain: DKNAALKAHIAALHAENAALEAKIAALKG

[6] = biological target: T6, P6-AA-1HGe-Q; settings: mean of both orientations
T6 chain: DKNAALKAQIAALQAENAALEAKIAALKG

[7] = biological target: T7, P6-AA-1HGe-A; settings: mean of both orientations
T7 chain: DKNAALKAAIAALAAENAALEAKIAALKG

[8] = biological target: T8, P6-AA-1HGe-D; settings: mean of both orientations
T8 chain: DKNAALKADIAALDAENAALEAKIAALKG

[9] = biological target: T9, P6-AA-1HGe-S; settings: mean of both orientations
T9 chain: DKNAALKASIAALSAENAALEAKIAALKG

[10] = biological target: T10, 4H458-AA; settings: mean of both orientations
T10 chain: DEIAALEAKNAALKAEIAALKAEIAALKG

[11] = biological target: T11, 4H3697-AA; settings: mean of both orientations
T11 chain: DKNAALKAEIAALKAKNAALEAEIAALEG

[12] = biological target: T12, 4H3395-AA; settings: mean of both orientations
T12 chain: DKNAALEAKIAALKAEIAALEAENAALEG

[13] = biological target: T13, 4H485-AA; settings: mean of both orientations
T13 chain: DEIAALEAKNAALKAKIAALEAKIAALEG

[14] = biological target: T14, 4H909-AA; settings: mean of both orientations
T14 chain: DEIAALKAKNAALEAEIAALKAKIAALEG

[15] = biological target: T15, 4H94-AA; settings: mean of both orientations
T15 chain: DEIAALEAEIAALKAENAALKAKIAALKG

[16] = biological target: T16, 4H3410-AA; settings: mean of both orientations
T16 chain: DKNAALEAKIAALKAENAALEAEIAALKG

[17] = biological target: T17, 4H2649-AA; settings: mean of both orientations
T17 chain: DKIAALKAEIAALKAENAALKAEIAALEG

[18] = biological target: T18, 4H2253-AA; settings: mean of both orientations
T18 chain: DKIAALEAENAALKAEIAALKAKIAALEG

[19] = biological target: T19, 4H629-AA; settings: mean of both orientations
T19 chain: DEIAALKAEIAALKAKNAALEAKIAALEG

[20] = biological target: T20, 4H2473-AA; settings: mean of both orientations
T20 chain: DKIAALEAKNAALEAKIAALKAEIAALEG

[21] = biological target: T21, 4H536-AA; settings: mean of both orientations
T21 chain: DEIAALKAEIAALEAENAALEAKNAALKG

[22] = biological target: T22, 4H570-AA; settings: mean of both orientations
T22 chain: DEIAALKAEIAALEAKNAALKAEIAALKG

[23] = biological target: T23, 4H745-AA; settings: mean of both orientations
T23 chain: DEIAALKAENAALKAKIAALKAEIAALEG

[24] = biological target: T24, 4H1864-AA
T24 chain: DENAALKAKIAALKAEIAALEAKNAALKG

[25] = biological target: T25, 4H2274-AA; settings: mean of both orientations
T25 chain: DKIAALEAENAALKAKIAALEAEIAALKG

[26] = biological target: T26, 4H2330-AA; settings: mean of both orientations
T26 chain: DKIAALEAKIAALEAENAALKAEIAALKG

[27] = biological target: T27, 4H2725-AA; settings: mean of both orientations
T27 chain: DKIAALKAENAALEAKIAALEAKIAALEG

[28] = biological target: T28, 4H1877-AA; settings: mean of both orientations
T28 chain: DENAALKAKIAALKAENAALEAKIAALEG

[29] = biological target: T29, 4H891-AA; settings: mean of both orientations
T29 chain: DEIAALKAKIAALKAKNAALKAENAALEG

[30] = biological target: T30, 4H3009-AA; settings: mean of both orientations
T30 chain: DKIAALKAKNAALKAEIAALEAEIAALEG

[31] = biological target: T31, 4H2438-AA; settings: mean of both orientations
T31 chain: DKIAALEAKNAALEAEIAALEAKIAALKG

[32] = biological target: T32, 4H3165-AA; settings: mean of both orientations
T32 chain: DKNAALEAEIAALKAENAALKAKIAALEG

[33] = biological target: T33, 4H3130-AA; settings: mean of both orientations
T33 chain: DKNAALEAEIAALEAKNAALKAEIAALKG

[34] = biological target: T34, 4H2109-AA; settings: mean of both orientations
T34 chain: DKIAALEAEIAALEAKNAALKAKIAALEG

[35] = biological target: T35, 4H2162-AA; settings: mean of both orientations
T35 chain: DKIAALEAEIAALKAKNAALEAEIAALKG

[36] = biological target: T36, 4H850-AA; settings: mean of both orientations
T36 chain: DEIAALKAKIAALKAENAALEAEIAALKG

[37] = biological target: T37, 4H3590-AA; settings: mean of both orientations
T37 chain: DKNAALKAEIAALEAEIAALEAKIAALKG

[38] = biological target: T38, 4H3120-AA; settings: mean of both orientations
T38 chain: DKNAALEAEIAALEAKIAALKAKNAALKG

[39] = biological target: T39, 4H3016-AA; settings: mean of both orientations
T39 chain: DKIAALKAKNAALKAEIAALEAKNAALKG

[40] = biological target: T40, 4H930-AA; settings: mean of both orientations
T40 chain: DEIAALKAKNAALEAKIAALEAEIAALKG

[41] = biological target: T41, 4H797-AA; settings: mean of both orientations
T41 chain: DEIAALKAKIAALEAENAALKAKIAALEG

[42] = biological target: T42, 4H2865-AA; settings: mean of both orientations
T42 chain: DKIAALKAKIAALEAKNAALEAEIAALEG

[43] = biological target: T43, 4H3865-AA; settings: mean of both orientations
T43 chain: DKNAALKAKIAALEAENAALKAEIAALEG

[44] = biological target: T44, 4H3381-AA; settings: mean of both orientations
T44 chain: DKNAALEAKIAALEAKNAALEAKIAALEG

[45] = biological target: T45, 4H3753-AA; settings: mean of both orientations
T45 chain: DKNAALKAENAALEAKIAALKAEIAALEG

[46] = biological target: T46, 4H710-AA; settings: mean of both orientations
T46 chain: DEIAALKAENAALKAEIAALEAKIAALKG

[47] = biological target: T47, 4H310-AA; settings: mean of both orientations
T47 chain: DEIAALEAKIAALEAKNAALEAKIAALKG

[48] = biological target: T48, 4H2389-AA; settings: mean of both orientations
T48 chain: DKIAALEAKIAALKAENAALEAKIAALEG

[49] = biological target: T49, 4H2698-AA; settings: mean of both orientations
T49 chain: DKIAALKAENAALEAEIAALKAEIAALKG

[50] = biological target: T50, O5-AA
T50 chain: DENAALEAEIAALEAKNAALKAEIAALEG

[51] = biological target: T51, O6-AA; settings: mean of both orientations
T51 chain: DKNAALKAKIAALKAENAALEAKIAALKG

[52] = biological target: T52, O8-AA; settings: mean of both orientations
T52 chain: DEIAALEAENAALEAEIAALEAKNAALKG

[53] = biological target: T53, P9-AA; settings: mean of both orientations
T53 chain: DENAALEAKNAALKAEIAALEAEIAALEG

[54] = biological target: T54, P10-AA; settings: mean of both orientations
T54 chain: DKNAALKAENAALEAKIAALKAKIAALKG

[55] = biological target: T55, O7-AA; settings: mean of both orientations
T55 chain: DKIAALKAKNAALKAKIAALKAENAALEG

interaction score [1]: 0.758
interaction score [2]: 1.14
interaction score [3]: 1.62
interaction score [4]: -0.238
interaction score [5]: 0.69
interaction score [6]: 1.12
interaction score [7]: 0.812
interaction score [8]: -1.28
interaction score [9]: -0.145
Binder: DENAALEADIAALDAKNAALKAEIAALEG [P5-AA-1HGe-D]

interaction score [10]: -1.21
interaction score [11]: -1.57
interaction score [12]: 0.321
interaction score [13]: -0.878
interaction score [14]: -1.38
interaction score [15]: -0.986
interaction score [16]: -1.5
interaction score [17]: -1.17
interaction score [18]: -1.42
interaction score [19]: -1.52
interaction score [20]: -1.22
interaction score [21]: 0.437
interaction score [22]: -0.57
interaction score [23]: -1.35
interaction score [24]: 0.981
interaction score [25]: -1.75
interaction score [26]: -1.49
interaction score [27]: -0.938
interaction score [28]: -1.45
interaction score [29]: -0.897
interaction score [30]: -0.905
interaction score [31]: 0.434
interaction score [32]: -1.47
interaction score [33]: -0.716
interaction score [34]: -0.599
interaction score [35]: -1.67
interaction score [36]: 0.223
interaction score [37]: 1.23
interaction score [38]: 0.774
interaction score [39]: -1.47
interaction score [40]: -1.41
interaction score [41]: -2.09
interaction score [42]: -1.19
interaction score [43]: -1.65
interaction score [44]: -1.63
interaction score [45]: 0.231
interaction score [46]: 1.32
interaction score [47]: -1.48
interaction score [48]: 0.806
interaction score [49]: -0.664
Binder: DENAALKAKIAALKAEIAALEAKNAALKG [4H1864-AA]

interaction score [1]: 2.3
interaction score [2]: 2.21
interaction score [3]: 2.38
interaction score [4]: 2.02
interaction score [5]: 2.44
interaction score [6]: 2.4
interaction score [7]: 2.15
interaction score [50]: -1.71
interaction score [51]: 1.88
interaction score [8]: 0.905
interaction score [9]: 2.12
interaction score [52]: -0.935
interaction score [53]: -1.56
interaction score [54]: 0.434
interaction score [55]: -0.71
Binder: DENAALEAEIAALEAKNAALKAEIAALEG [O5-AA]
